# According to article PMC4786784 (Nature Communications, 2016):
# How the values were obtained:
# U2AF65 1,2L [1] = molecular target: T1, U2AF65 1,2L (human, UniProt P26368 141-342); test: fluorescence anisotropy; Anisotropy: 100 mM NaCl, 15 mM HEPES pH 6.8, 0.2 mM TCEP, 0.1 U/ul Superase-In, 30 nM RNA, 23 C; smFRET: 50 mM HEPES pH 7.4, 100 mM NaCl, room temperature
# flU2AF65;U2AF35-UHM = flU2AF65;U2AF35-UHM (human;human, UniProt P26368;Q01081 1-475;43-146, |); test: as above
# U2AF65 1,2L [2] = molecular target: T1, U2AF65 1,2L; test: as above; remark: listed apart in the source
# U2AF65 1,2L FRET [3] = molecular target: T2, U2AF65 1,2L FRET (human, UniProt P26368 113-343, A181C;C305A;Q324C); test: smFRET; slide-tethered protein, 10 uM RNA; Anisotropy: 100 mM NaCl, 15 mM HEPES pH 6.8, 0.2 mM TCEP, 0.1 U/ul Superase-In, 30 nM RNA, 23 C; smFRET: 50 mM HEPES pH 7.4, 100 mM NaCl, room temperature
# U2AF65 1,2L FRET [4] = molecular target: T2, U2AF65 1,2L FRET; test: smFRET; slide-tethered protein, 5 uM RNA; Anisotropy: 100 mM NaCl, 15 mM HEPES pH 6.8, 0.2 mM TCEP, 0.1 U/ul Superase-In, 30 nM RNA, 23 C; smFRET: 50 mM HEPES pH 7.4, 100 mM NaCl, room temperature
# dU2AF65 1,2L = dU2AF65 1,2L (human, UniProt P26368 141-342, del238-257); test: fluorescence anisotropy; Anisotropy: 100 mM NaCl, 15 mM HEPES pH 6.8, 0.2 mM TCEP, 0.1 U/ul Superase-In, 30 nM RNA, 23 C; smFRET: 50 mM HEPES pH 7.4, 100 mM NaCl, room temperature
# U2AF65 1,2L 3Mut = U2AF65 1,2L 3Mut (human, UniProt P26368 141-342, Q147A;R227A;V254P); test: as above
# U2AF65 1,2L Q147A = U2AF65 1,2L Q147A (human, UniProt P26368 141-342, Q147A); test: as above
# U2AF65 1,2L V254P = U2AF65 1,2L V254P (human, UniProt P26368 141-342, V254P); test: as above
# dU2AF65 1,2 = dU2AF65 1,2 (human, UniProt P26368 148-336, del238-257); test: as above
# U2AF65 1,2L 5Gly = U2AF65 1,2L 5Gly (human, UniProt P26368 141-342, S251G;T252G;V253G;V254G;P255G); test: as above
# U2AF65 1,2L NLALA = U2AF65 1,2L NLALA (human, UniProt P26368 141-342, S251N;T252L;V253A;V254L;P255A); test: as above
# U2AF65 1,2L 3Gly = U2AF65 1,2L 3Gly (human, UniProt P26368 141-342, V249G;V250G;V254G); test: as above
# U2AF65 1,2L R227A = U2AF65 1,2L R227A (human, UniProt P26368 141-342, R227A); test: as above
# U2AF65 1,2L 12Gly = U2AF65 1,2L 12Gly (human, UniProt P26368 141-342, M144G;L235G;M238G;V244G;V246G;V249G;V250G;S251G;T252G;V253G;V254G;P255G); test: as above
# [5] = molecular target: T3, full-length human U2AF^65 (residues 1–475) (human, UniProt P26368-1 1-475); test: SEC; U2AF65 combined with slight excess U2AF35-UHM (ratio 1:1.2), dialysed overnight, heterodimer purified on Superdex-200 prep-grade in 150 mM NaCl, 25 mM HEPES pH 6.8, 0.2 mM TCEP; settings: both partners purified
# T3 construct: U2AF65 (U2AF2), human, full length, residues 1-475; also called flU2AF^65; U2AF2; source: expressed as a GST fusion protein, purified (GST cleavage, SP-HiTrap ion exchange)
# T3 sequence (P26368 whole entry, the tested form may be a part): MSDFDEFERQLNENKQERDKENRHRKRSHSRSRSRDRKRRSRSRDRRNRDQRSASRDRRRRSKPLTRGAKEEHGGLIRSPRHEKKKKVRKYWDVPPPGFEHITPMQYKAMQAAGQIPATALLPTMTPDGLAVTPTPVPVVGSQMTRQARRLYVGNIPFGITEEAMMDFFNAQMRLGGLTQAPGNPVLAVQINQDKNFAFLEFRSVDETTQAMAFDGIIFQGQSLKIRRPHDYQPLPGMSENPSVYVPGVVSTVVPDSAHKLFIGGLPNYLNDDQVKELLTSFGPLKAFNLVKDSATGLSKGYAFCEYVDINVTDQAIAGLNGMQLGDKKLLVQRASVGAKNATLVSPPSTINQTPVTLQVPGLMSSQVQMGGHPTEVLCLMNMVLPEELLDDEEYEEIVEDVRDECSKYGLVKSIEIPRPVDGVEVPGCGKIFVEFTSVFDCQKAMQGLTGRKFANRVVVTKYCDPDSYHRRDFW
# T1 sequence (P26368 141-342, one chain of several): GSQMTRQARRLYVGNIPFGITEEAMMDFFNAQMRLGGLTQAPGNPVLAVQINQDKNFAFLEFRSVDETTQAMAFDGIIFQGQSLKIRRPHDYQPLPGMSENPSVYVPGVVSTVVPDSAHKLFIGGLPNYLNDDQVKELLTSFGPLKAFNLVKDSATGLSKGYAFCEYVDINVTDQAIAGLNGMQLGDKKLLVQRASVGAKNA
# Chain of flU2AF65;U2AF35-UHM (P26368 whole entry, one chain of several): as the sequence (P26368 whole entry, the tested form may be a part) above
# T2 sequence (P26368 113-343 A181C/C305A/Q324C, one chain of several): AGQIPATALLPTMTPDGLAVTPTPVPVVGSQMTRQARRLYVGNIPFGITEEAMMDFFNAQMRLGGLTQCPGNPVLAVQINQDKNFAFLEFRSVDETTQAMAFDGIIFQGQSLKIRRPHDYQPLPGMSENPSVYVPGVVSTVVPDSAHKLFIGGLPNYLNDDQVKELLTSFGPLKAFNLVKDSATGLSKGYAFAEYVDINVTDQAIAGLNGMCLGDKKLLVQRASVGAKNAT
# Chain of U2AF65 1,2L V254P (P26368 141-342 V254P, one chain of several): as the sequence (P26368 141-342, one chain of several) above, with V114P counted along it
# Chain of U2AF65 1,2L 12Gly (P26368 141-342 M144G/L235G/M238G/V244G/V246G/V249G/V250G/S251G/T252G/V253G/V254G/P255G, one chain of several): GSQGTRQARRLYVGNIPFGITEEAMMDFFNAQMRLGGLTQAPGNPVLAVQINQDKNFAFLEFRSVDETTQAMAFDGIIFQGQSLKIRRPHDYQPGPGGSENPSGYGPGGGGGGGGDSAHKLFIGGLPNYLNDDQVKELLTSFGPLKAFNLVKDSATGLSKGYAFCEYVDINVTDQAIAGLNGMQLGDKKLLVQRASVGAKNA
# Chain of U2AF65 1,2L 3Gly (P26368 141-342 V249G/V250G/V254G, one chain of several): as the sequence (P26368 141-342, one chain of several) above, with V109G, V110G, V114G counted along it
# Chain of dU2AF65 1,2L (P26368 other isoform, or with tags, fused parts or gaps del238-257): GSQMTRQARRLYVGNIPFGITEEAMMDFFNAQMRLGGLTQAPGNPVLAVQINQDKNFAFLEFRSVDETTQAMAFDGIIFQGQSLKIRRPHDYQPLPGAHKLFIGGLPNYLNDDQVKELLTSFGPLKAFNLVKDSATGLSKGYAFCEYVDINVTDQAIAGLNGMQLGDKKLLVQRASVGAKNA
# Chain of U2AF65 1,2L 3Mut (P26368 141-342 Q147A/R227A/V254P, one chain of several): as the sequence (P26368 141-342, one chain of several) above, with Q7A, R87A, V114P counted along it
# Chain of U2AF65 1,2L Q147A (P26368 141-342 Q147A, one chain of several): as the sequence (P26368 141-342, one chain of several) above, with Q7A counted along it
# Chain of dU2AF65 1,2 (P26368 other isoform, or with tags, fused parts or gaps del238-257): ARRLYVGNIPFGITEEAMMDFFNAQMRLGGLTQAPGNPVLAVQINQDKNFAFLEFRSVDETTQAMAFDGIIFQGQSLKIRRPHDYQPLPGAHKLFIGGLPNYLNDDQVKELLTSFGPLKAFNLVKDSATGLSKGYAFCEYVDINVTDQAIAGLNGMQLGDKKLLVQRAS
# Chain of U2AF65 1,2L NLALA (P26368 141-342 S251N/T252L/V253A/V254L/P255A, one chain of several): as the sequence (P26368 141-342, one chain of several) above, with S111N, T112L, V113A, V114L, P115A counted along it
# Chain of U2AF65 1,2L R227A (P26368 141-342 R227A, one chain of several): as the sequence (P26368 141-342, one chain of several) above, with R87A counted along it
# Chain of U2AF65 1,2L 5Gly (P26368 141-342 S251G/T252G/V253G/V254G/P255G, one chain of several): as the sequence (P26368 141-342, one chain of several) above, with S111G, T112G, V113G, V114G, P115G counted along it
binder,measurement,setting,value
CUUUUUAAUUUCC (ssRNA) [AdML Py tract rArA mutant],binding signal,"U2AF65 1,2L [1]",~5 fold lower affinity than AdML
CCUUUUCCCCCCC (ssRNA) [5'-4rU],Kd,flU2AF65;U2AF35-UHM,41 ± 2 nM
same,Kd,"U2AF65 1,2L [2]",31 ± 3 nM
CUUUUUAAUUUCCA (ssRNA) [rArA-interrupted Py tract],binding result,"U2AF65 1,2L FRET [3]",binds
CCCCCCCUUUUCC (ssRNA) [3'-4rU],Kd,flU2AF65;U2AF35-UHM,414 ± 12 nM
same,Kd,"U2AF65 1,2L [2]",417 ± 10 nM
CCUUUUUUUUCC (ssRNA) [AdML Py tract 12mer],binding result,"U2AF65 1,2L FRET [4]",binds
CCCUUUUUUUUCC (ssRNA) [AdML Py tract 13mer],Kd,flU2AF65;U2AF35-UHM,30 ± 3 nM
same,Kd,"dU2AF65 1,2L",123 ± 5 nM
same,Kd,"U2AF65 1,2L 3Mut",5630 ± 70 nM
same,Kd,"U2AF65 1,2L Q147A",171 ± 21 nM
same,Kd,"U2AF65 1,2L V254P",137 ± 10 nM
same,Kd,"dU2AF65 1,2",5000 ± 100 nM
same,Kd,"U2AF65 1,2L 5Gly",61 ± 3 nM
same,Kd,"U2AF65 1,2L NLALA",45 ± 3 nM
same,Kd,"U2AF65 1,2L 3Gly",47 ± 4 nM
same,Kd,"U2AF65 1,2L R227A",166 ± 2 nM
same,Kd,"U2AF65 1,2L 12Gly",88 ± 21 nM
"U2AF^35-UHM (U2AF homology motif; residues 43–146) (domain or fragment, UniProt Q01081-1 43-146, looked up, also called heterodimerization domain of the U2AF^35 subunit; U2AF1; source: expressed as a GST fusion protein, purified (GST cleavage, Q-HiTrap ion exchange)) SQTIALLNIYRNPQNSSQSADGLRCAVSDVEMQEHYDEFFEEVFTEMEEKYGEVEEMNVCDNLGDHLVGNVYVKFRREEDAEKAVIDLNNRWFNGQPIHAELSP",binding result,[5],binds
